Key:
[1] = tested on: human iPS cells (Ff-I01 strain); assay: Neural tissue / neuroepithelium formation in cell aggregates, bright field observation; assay type: cell-based
Description: At the time of the start of suspension culturing (day 0 after the start of suspension culturing, […]), Y27632 ([…]) were added to the above serum-free medium (FIG. 22). By day 2 after the start of suspension culturing, a cell aggregate was formed (step 2 completed, step 3 start) under any conditions. On day 3 or later from the start of suspension culturing, BMP4 was added under 3 conditions including the following conditions 1-3. • Condition 1: (+BMP4 addition once) On day 3 of suspension culturing, a medium (50 μl) free of Y27632 and SAG, and containing human recombinant BMP4 (manufactured by R&D) was added such that the final concentration of exogenous human recombinant BMP4 was 1.5 nM (55 ng/ml). On day 6 or later from the start of suspension culturing, a half amount of the medium was changed to a serum-free medium free of Y27632, SAG and human recombinant BMP4. • Condition 2: (+BMP4 addition twice) On day 3 of suspension culturing, a medium (50 μl) free of Y27632, SAG and containing human recombinant BMP4 (manufactured by R&D) was added such that the final concentration of exogenous human recombinant BMP4 was 1.5 nM (55 ng/ml). On day 6 from the start of suspension culturing, 50 μl of the medium was discarded, and 50 μl of a medium free of Y27632 and SAG and containing human recombinant BMP4 (manufactured by R&D) was added to maintain the final concentration of exogenous human recombinant BMP4 at 1.5 nM (55 ng/ml). On day 9 or later from the start of suspension culturing, a half amount of the medium was changed with a serum-free medium free of Y27632, SAG, and human recombinant BMP4. • Condition 3: (+BMP4 addition three times) On day 3 of suspension culturing, a medium (50 μl) free of Y27632, SAG and containing human recombinant BMP4 (manufactured by R&D) was added such that the final concentration of exogenous human recombinant BMP4 was 1.5 nM (55 ng/ml). On days 6 and 9 from the start of suspension culturing, 50 μl of the medium was discarded, and 50 μl of a medium free of Y27632 and SAG and containing human recombinant BMP4 (manufactured by R&D) was added to maintain the final concentration of exogenous human recombinant BMP4 at 1.5 nM (55 ng/ml). On day 12 or later from the start of suspension culturing, a half amount of the medium was changed with a serum-free medium free of Y27632, SAG and human recombinant BMP4. […]
On day 3 after the start of suspension culturing, a medium (50 μl) free of Y27632 and SAG, and containing human recombinant BMP4 (manufactured by R&D) was added such that the final concentration of exogenous human recombinant BMP4 was 1.5 nM (55 ng/ml) or 5 nM (183 ng/ml). […]

[2] = tested on: human iPS cells (Ff-I01 strain); assay: Immunostaining of aggregate sections for retinal tissue marker Chx10; assay type: cell-based
From the text: (§1) Cell aggregates on day 16 after the start of suspension culturing were fixed with 4% para-formaldehyde to prepare frozen sections. These frozen sections were immunostained for Chx10 (anti-Chx10 antibody, Exalpha, sheep), which is one of the retinal tissue markers. These immunostained sections were observed under a fluorescence microscope.
Cell aggregates on day 16 after the start of suspension culturing were fixed with 4% para-formaldehyde to prepare frozen sections. These frozen sections were immunostained for Chx10 (anti-Chx10 antibody, Exalpha, sheep), which is one of the retinal tissue markers, and observed under a fluorescence microscope. […] In addition, the proportion of Chx10-positive cells in the total cells is about 80% under conditions with the addition of BMP4 twice to maintain the final concentration of 5 nM (FIG. 23, D)
The cell aggregates on day 19 after the start of suspension culturing were fixed with 4% para-formaldehyde to prepare frozen sections. These frozen sections were immunostained for Chx10 (anti-Chx10 antibody, Exalpha, sheep), which is one of the retinal tissue markers. These immunostained sections were observed under an inverted fluorescence microscope. As a result, the proportion of Chx10-positive cells in the total cells is about 70% under conditions with the addition of BMP4 twice to maintain the final concentration of 1.5 nM ([…]). In addition, the proportion of Chx10-positive cells in the total cells is about 90% under conditions with the addition of BMP4 twice to maintain the final concentration of 5 nM (FIG. 34, D).
as §1, with “The thus-prepared cell” for “Cell”, “19” for “16”, “markers, and” for “markers. These immunostained sections were”

B1: BMP4: human recombinant BMP4 (manufactured by R&D), BMP signal transduction pathway activating substance (protein, UniProt P12644 293-408, looked up)
Bone morphogenetic protein 4: SPKHHSQRARKKNKNCRRHSLYVDFSDVGWNDWIVAPPGYQAFYCHGDCPFPLADHLNSTNHAIVQTLVNSVNSSIPKACCVPTELSAISMLYLDEYDKVVLKNYQEMVVEGCGCR
B1 was tested, and the “cell aggregate and neural tissue formation” value ([1]; SAG 300 nM 2 days in step 1, SAG 300 nM in step 2, BMP4 1.5 nM added 1, 2 or 3 times in step 3, day 16) was “a neural tissue could be formed efficiently”, the “cell aggregate and neural tissue formation” value ([1]; SAG 300 nM 2 days in step 1, SAG 1000 nM in step 2, BMP4 at 1.5 nM and 5 nM in step 3, day 16) was “a neural tissue could be formed efficiently” and the “cell aggregate and neural tissue formation” value ([1]; StemFit AK03N, SAG 300 nM 2 days in step 1, SAG 500 nM in step 2, BMP4 at 1.5 nM or 5 nM, day 19) was “a neural tissue can be formed efficiently”. For the same molecule, the “proportion of Chx10-positive cells in the total cells” value (“proportion of Chx10-positive cells” below) ([2]; SAG 300 nM 2 days in step 1, SAG 300 nM in step 2, BMP4 1.5 nM added 2 or 3 times, day 16) was “about 80%”, the “proportion of Chx10-positive cells” value ([2]; SAG 300 nM 2 days in step 1, SAG 300 nM in step 2, BMP4 1.5 nM added once (day 3), day 16) was “about 60%” and the “proportion of Chx10-positive cells” value ([2]; StemFit AK03, SAG 300 nM 2 days in step 1, SAG 1000 nM in step 2, BMP4 added twice to maintain 1.5 nM, day 16) was “about 70%”. For the same molecule, the “proportion of Chx10-positive cells” value ([2]; StemFit AK03, SAG 300 nM 2 days in step 1, SAG 1000 nM in step 2, BMP4 added twice to maintain 5 nM, day 16) was “about 80%”, the “proportion of Chx10-positive cells” value ([2]; StemFit AK03N, SAG 300 nM 2 days in step 1, SAG 500 nM in step 2, BMP4 added twice to maintain 1.5 nM, day 19) was “about 70%” and the “proportion of Chx10-positive cells” value ([2]; StemFit AK03N, SAG 300 nM 2 days in step 1, SAG 500 nM in step 2, BMP4 added twice to maintain 5 nM, day 19) was “about 90%”.
